For 18 molecules, Ho/Con_3a results are on record in patent US20180155451A1 (published 2018).

First the molecules themselves.
B1: GpH7-B3 variant S337_09D/GpL16-k0 (antibody, human IgG1, kappa)
heavy: not shown
light: DIVMTQSPLSLPVTPGEPASISCQASESLVHSNRNTYLHWYLQKPGQSPQLLIYKVSNRFSGVPDRFSGSGSGTDFTLKISRVEAEDVGVYYCSQNTHVPPTFGQGTKVEIERTVAAPSVFIFPPSDEQLKSGTASVVCLLNNFYPREAKVQWKVDNALQSGNSQESVTEQDSKDSTYSLSSTLTLSKADYEKHKVYACEVTHQGLSSPVTKSFNRGEC
notes: also called Ho Ab S337_09D
B2: GpH7-B3 variant S337_10E/GpL16-k0 (antibody, human IgG1, kappa)
heavy: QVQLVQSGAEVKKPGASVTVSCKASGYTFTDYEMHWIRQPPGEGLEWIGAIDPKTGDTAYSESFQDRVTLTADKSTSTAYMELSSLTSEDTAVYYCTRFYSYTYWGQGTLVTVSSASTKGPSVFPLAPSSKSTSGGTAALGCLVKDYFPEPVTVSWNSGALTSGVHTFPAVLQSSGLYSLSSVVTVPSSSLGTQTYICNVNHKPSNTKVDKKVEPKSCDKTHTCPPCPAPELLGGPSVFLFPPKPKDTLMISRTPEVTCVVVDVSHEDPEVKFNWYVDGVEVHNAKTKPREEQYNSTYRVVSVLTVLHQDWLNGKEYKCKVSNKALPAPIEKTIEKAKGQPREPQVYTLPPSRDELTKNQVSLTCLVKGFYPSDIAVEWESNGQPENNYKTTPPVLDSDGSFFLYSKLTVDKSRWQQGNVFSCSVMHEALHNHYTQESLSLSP
light: B1 light
notes: also called Ho Ab S337_10E
B3: GpH7-B3 variant T335_07I/GpL16-k0 (antibody, human IgG1, kappa)
heavy: not shown
light: B1 light
notes: also called Ho Ab T335_07I
B4: GpH7-B3 variant T335_10E/GpL16-k0 (antibody, human IgG1, kappa)
heavy: not shown
light: B1 light
notes: also called Ho Ab T335_10E
B5: GpH7-B3 variant T335_19Q/GpL16-k0 (antibody, human IgG1, kappa)
heavy: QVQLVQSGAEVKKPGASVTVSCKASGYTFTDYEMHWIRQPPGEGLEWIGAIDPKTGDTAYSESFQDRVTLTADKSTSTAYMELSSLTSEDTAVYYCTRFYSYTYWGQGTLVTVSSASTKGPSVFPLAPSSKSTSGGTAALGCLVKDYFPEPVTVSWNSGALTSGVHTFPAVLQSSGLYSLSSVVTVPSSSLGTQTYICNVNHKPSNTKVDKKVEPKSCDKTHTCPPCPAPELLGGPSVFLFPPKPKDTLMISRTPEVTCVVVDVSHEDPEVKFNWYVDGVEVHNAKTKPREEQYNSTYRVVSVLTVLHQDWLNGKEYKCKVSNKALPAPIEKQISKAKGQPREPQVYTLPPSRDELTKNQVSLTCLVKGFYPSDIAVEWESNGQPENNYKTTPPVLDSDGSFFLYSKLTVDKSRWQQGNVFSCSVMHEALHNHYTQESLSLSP
light: B1 light
notes: also called Ho Ab T335_19Q
B6: GpH7-B3 variant T335_20W/GpL16-k0 (antibody, human IgG1, kappa)
heavy: not shown
light: B1 light
notes: also called Ho Ab T335_20W
B7: GpH7-B3 variant S337_14T/GpL16-k0 (antibody, human IgG1, kappa)
heavy: not shown
light: B1 light
notes: also called Ho Ab S337_14T
B8: GpH7-B3 variant S337_18N/GpL16-k0 (antibody, human IgG1, kappa)
heavy: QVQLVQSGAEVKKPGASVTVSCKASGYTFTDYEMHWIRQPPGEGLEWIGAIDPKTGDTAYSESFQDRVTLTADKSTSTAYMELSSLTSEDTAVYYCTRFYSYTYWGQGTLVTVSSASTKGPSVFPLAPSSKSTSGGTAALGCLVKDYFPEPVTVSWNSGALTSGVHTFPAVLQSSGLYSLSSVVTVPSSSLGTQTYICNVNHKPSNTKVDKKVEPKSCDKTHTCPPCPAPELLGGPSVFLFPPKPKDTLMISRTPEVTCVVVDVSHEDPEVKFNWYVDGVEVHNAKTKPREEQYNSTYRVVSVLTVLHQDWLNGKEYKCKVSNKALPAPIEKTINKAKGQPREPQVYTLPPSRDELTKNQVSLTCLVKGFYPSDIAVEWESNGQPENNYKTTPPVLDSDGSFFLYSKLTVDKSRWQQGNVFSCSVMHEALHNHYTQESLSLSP
light: B1 light
notes: also called Ho Ab S337_18N
B9: GpH7-B3 variant S337_20W/GpL16-k0 (antibody, human IgG1, kappa)
heavy: not shown
light: B1 light
notes: also called Ho Ab S337_20W
B10: GpH7-B16/GpL16-k0 (antibody, human IgG1, kappa)
heavy: not shown
light: B1 light
notes: also called Ho Ab L234_10E; GpH7-B3 variant L234_10E/GpL16-k0
B11: GpH7-B3 variant T335_16H/GpL16-k0 (antibody, human IgG1, kappa)
heavy: not shown
light: B1 light
notes: also called Ho Ab T335_16H
B12: GpH7-B17/GpL16-k0 (antibody, human IgG1, kappa)
heavy: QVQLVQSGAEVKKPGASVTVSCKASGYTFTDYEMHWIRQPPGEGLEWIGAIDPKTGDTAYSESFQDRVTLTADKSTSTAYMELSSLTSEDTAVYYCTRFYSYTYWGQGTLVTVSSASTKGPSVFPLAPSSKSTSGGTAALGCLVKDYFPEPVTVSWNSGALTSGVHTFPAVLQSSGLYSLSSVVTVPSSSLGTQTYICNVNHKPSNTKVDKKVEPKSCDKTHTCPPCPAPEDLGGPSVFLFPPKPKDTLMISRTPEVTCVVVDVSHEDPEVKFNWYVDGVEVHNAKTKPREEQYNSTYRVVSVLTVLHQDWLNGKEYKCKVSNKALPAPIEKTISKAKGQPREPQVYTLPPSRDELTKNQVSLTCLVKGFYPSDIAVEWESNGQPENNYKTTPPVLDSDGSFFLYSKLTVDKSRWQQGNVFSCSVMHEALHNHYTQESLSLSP
light: B1 light
notes: also called Ho Ab L234_09D; GpH7-B3 variant L234_09D/GpL16-k0
B13: GpH7-B3 variant T335_13S/GpL16-k0 (antibody, human IgG1, kappa)
heavy: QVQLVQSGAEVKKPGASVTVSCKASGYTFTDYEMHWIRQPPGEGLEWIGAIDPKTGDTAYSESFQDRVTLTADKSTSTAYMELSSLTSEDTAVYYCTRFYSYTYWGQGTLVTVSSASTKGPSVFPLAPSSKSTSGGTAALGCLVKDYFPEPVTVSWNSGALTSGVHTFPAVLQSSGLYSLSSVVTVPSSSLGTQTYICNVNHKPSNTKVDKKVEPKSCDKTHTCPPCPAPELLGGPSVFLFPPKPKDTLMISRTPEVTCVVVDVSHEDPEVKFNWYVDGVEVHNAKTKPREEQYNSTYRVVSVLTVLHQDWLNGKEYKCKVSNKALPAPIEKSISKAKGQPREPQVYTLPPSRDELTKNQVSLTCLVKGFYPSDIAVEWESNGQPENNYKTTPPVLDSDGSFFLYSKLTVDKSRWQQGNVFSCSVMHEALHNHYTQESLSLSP
light: B1 light
notes: also called Ho Ab T335_13S
B14: GpH7-B3 variant V266_08L/GpL16-k0 (antibody, human IgG1, kappa)
heavy: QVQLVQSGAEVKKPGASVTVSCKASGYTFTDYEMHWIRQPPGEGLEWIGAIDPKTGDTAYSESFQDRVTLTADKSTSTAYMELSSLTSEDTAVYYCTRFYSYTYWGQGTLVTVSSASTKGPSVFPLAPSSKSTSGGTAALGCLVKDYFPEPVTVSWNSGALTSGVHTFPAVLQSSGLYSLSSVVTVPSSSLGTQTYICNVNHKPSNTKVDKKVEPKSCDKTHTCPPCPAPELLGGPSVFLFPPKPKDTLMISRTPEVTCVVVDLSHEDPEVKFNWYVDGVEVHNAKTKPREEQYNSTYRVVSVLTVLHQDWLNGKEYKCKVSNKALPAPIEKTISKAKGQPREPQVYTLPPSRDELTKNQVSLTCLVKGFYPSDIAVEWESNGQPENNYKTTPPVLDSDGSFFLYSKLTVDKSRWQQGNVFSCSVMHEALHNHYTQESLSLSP
light: B1 light
notes: also called Ho Ab V266_08L
B15: GpH7-B3 variant S337_15Y/GpL16-k0 (antibody, human IgG1, kappa)
heavy: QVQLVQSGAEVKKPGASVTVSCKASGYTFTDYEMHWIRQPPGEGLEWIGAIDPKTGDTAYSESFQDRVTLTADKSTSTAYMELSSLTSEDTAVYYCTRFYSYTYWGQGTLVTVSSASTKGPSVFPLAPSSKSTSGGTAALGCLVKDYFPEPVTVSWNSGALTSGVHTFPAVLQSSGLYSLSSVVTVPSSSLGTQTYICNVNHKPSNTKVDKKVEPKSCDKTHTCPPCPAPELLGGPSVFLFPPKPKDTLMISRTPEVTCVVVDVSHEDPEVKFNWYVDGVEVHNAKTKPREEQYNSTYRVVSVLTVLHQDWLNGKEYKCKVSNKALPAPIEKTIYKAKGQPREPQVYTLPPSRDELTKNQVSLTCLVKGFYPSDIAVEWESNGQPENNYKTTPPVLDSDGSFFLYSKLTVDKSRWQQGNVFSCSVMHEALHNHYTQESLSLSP
light: B1 light
notes: also called Ho Ab S337_15Y
B16: GpH7-B3-03-20W/GpL16-k0 (antibody, human IgG1, kappa)
heavy: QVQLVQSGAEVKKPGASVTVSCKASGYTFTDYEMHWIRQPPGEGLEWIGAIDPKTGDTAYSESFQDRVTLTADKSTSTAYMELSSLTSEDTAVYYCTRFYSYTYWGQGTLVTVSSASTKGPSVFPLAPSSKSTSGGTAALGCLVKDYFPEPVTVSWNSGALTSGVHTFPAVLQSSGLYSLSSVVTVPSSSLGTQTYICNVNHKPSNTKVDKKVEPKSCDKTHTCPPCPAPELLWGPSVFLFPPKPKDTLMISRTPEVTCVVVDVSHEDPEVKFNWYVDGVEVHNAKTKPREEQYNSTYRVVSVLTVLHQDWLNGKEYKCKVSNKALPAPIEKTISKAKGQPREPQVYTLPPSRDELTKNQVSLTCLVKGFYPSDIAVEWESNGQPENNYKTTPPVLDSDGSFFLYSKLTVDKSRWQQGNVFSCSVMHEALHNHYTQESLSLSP
light: B1 light
notes: also called Ho Ab G236_20W; GpH7-B3 variant G236_20W/GpL16-k0
B17: GpH7-B3 variant T335_15Y/GpL16-k0 (antibody, human IgG1, kappa)
heavy: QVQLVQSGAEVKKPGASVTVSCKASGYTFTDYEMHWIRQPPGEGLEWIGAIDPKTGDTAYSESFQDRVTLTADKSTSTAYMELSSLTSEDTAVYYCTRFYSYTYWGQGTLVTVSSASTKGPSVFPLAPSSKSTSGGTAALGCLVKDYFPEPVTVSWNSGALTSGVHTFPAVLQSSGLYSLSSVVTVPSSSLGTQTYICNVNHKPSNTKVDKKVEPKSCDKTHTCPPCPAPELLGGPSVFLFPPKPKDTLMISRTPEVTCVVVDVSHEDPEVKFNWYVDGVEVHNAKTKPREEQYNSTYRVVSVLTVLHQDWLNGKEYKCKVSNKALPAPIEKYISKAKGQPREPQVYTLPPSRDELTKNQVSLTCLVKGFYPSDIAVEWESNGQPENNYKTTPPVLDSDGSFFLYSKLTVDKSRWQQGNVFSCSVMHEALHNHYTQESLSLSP
light: B1 light
notes: also called Ho Ab T335_15Y
B18: GpH7-B3-01-15Y/GpL16-k0 (antibody, human IgG1, kappa)
heavy: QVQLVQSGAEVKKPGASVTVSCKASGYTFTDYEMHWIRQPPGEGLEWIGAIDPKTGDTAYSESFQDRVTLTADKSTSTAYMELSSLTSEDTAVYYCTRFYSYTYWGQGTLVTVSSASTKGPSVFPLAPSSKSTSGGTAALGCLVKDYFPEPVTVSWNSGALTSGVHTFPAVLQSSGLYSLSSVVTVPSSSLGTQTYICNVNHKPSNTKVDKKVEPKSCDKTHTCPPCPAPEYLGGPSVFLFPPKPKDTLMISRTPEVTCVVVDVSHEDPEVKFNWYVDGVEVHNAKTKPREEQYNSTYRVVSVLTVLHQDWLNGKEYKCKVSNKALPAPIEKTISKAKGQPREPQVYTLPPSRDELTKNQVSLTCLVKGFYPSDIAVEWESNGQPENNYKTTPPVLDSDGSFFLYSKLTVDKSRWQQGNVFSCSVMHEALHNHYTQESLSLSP
light: B1 light
notes: also called Ho Ab L234_15Y; GpH7-B3 variant L234_15Y/GpL16-k0

T1 sequence (P08637 17-208): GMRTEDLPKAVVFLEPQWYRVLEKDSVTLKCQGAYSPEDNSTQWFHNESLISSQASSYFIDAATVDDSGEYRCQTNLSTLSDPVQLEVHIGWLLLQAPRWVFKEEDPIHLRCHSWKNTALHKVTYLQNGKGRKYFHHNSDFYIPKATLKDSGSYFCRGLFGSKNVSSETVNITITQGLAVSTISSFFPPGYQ

The experiment has as its target T1, FcγRIIIa extracellular domain with C-terminal His tag (human, UniProt P08637 17-208).
T1 construct: extracellular domain; also called FcgRIIIa; 3a; not shown: His tag at the C terminus
Nature of the experiment: SPR relative binding; GpH7-B3/GpL16-k0 = 100. Here is the method:
Analysis of interaction between objective antibody and the FcγR was carried out using Biacore T100 (GE Healthcare). HBS-EP+ (GE Healthcare) was used as the running buffer, and the measurement temperature was set to 25° C. Chips produced by immobilizing the antigen peptide by the amine coupling method to a Series S Sencor Chip CM5 (GE Healthcare), or alternatively, chips produced by allowing preliminarily biotinylated antigen peptides to interact with and immobilize onto a Series S Sensor Chip SA (certified) (GE Healthcare) were used. Antibodies of interest were captured onto an antigen peptide-immobilized chip, and allowed to interact to each FcγR diluted with running buffer. To regenerate and repeatedly use the chip, the antibodies captured on the chip were washed off by reacting 10 mM glycine-HCl, pH 1.5.
The FcγR-binding activity of each antibody was assessed primarily using as an indicator the FcγR-binding activity and dissociation constant for FcγR.
B1: the Ho/Con_3a was 106 % of control.
Next, B2: 100 % of control; B3: 107 % of control.
Then B4, with 102 % of control.
Then B5, with 97.7 % of control.
Take B6: the Ho/Con_3a was 91.8 % of control.
On to B7, for which the Ho/Con_3a is 97.2 % of control.
For the molecule B8, the Ho/Con_3a is 102 % of control.
Then B9, with 87.8 % of control; and B10, with 64.7 % of control; and B11, with 99.5 % of control.
Consider B12, for which the Ho/Con_3a was 52.8 % of control.
Next, B13: 97.6 % of control.
Consider B14, for which the Ho/Con_3a is 90.5 % of control.
Next, B15: 99 % of control.
Next, B16: 58.3 % of control.
Next, B17: 91.5 % of control; B18: 64.7 % of control.
